Assay [1] concerns the target T1, calibrant peptide pT3xpT82 (N-terminal acetyl; dPEG4 linker between the two segments; two phosphothreonines (pT) in GSRSR(pT)PSLP(pT)PPTREPKKV; C-terminal amide).
T1 construct: Molecular weight 4551 g/mol
T1 peptide: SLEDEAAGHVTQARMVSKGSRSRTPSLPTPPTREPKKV
Put plainly: Simoa pT3xpT82 sandwich assay, calibrant titrated 30 to 0.041 pg/ml. The procedure: (§1) The calibrant peptides were reconstituted to 5 mg/ml in 0.1% phosphoric acid/water, aliquoted to 20 ul and frozen. When ready for use, the calibrant peptide aliquots were thawed and diluted 1:1000 (e.g. 1.5 ul into 1498.5 ul), and the dilutions were diluted […] so that the final concentration of the peptides was 5000 pg/ml. A standard curve with 3× jumps was made, starting at 30 pg/ml.
(§2) Calibrant peptides described in Example 1 were produced. The calibrant peptides contained the core epitopes of pT3 and hT43, or pT3 and pT82 separated by PEG4 linkers, and they were used to generate standard curves. Calibrant peptides were titrated from 30 pg/ml to 0.041 pg/ml in 1:3 jumps in assay buffer and measured with the pT3xhT43 and pT3xpT82 assays. A 4-parameter curve fit data reduction method (4PL, 1/y2 weighted) was used to generate the calibration curve. The lower limit of detection (LLOD) was defined as the calculated calibrant level yielding an AEB equal to the average of the zero calibrator+2.5 standard deviations (SD), including 10% coefficient of variation (CV). With these criteria, the representative data yielded an LLOD of 0.002 pg/ml. The Linear Range of the assay, lower limit of quantification (LLOQ) and upper limit of quantification (ULOQ), was defined as the lowest and highest standard curve points achieving CV<20% and recovery 80-120% of expected. […]

The target in assay [2] is T2, calibrant peptide pT3xhT43 (two phosphothreonines (pT) in GSRSR(pT)PSLP(pT)PPTREPKKV; dPEG4 linkers between the three segments; C-terminal amide).
T2 construct: Molecular weight 6893 g/mol
T2 peptide: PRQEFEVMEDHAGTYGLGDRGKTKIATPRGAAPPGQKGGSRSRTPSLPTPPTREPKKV
Put plainly: Simoa pT3xhT43 sandwich assay, calibrant titrated 30 to 0.041 pg/ml. Here is the method: as §1, §2

B1: pT82 mAb (antibody, V domains shown)
VH: EVKLEESGGGLVQPGGSMKLSCVASGFTFSNYWMNWIRQSPEKGLEWVAQIRLQSDNYATRYAESVKGRFTISRDESKTSVYLQMNNLRTEDTGIYYCTGGTTYWGQGTLVTVSA
VL: DIVMTQSQKFMSTSVGDRVSITCKASQNVGTAVAWYQQKPGQSPKLLIYSASIRYTGVPDRFTGSGSGTDFTLTINYMQSEDLADYFCQQFSSYPYTFGGGTKLEIK
notes: The majority assignment is used
For the molecule B1, the binding result in assay [1] is reported as “binds”.

B2: pT3 mouse monoclonal antibody (antibody, V domains shown)
VH: EVKLVESGGDLVKPGGSLKLSCAASGFTFSSYAMSWVRQNPEKRLEWVASISKGGNTYYPNSVKGRFTISRDNARNILYLQMSSLRSEDTALYYCARGWGDYGWFAYWGQVTLVTVSA
VL: DIKMTQSPSSMYASLGERVTITCKASQDINRYLNWFQQKPGKSPKTLIYRANRLLDGVPSRFSGSGSGQDYSLTISSLDYEDMGIYYCLQYDEFPLTFGDGTKLELK
notes: Parental mouse mAb expressed by a mouse hybridoma; Used on capture beads, and as soluble antibody in spiking experiments; also called pT3 mAb
For B2, in assay [2], the binding result is “binds”.
